Assay results as given in US20260055369A1, “METHOD FOR GENERATING CELLS OF THE T CELL LINEAGE WITH ENGINEERING BROADLY REACTIVE HUMAN NOTCH LIGAND” (H. Lee Moffitt Cancer Center and Research Institute, Inc., priority 2022, published 2026).

B1: DLL4.v1: human DLL4 construct containing the five E12 mutations (Site 1+Site 2); sequence matches SEQ ID NO: 2 (protein)
chain: SSVFQLQLQEFINERGVLASGRPCEPGCRTFFRVCLKHFQAVVSPGPCTFGTVSTPVLGTNSFAVRDDSSGGGRNPLQLPLNFTWPGTFSLIIEAWHAPGDDLRPEALPPDALISKFAIQGSLAVGQNWLLDEQTSTLTRLRYSYRVICSDNYYGDNCSRLCKKRNDYFGHYVCQPDGNPSCLPGWTGEYCQQPICLSGCHEQNGYCSKPAECLCRPGWQGRLCNECIPHNGCRHGTCSTPWQCTCDEGWGGLFCDQDLNYCTHHSPCKNGATCSNSGQRSYTCTCRPGYTGVDCELELSECDSNPCRNGGSCKDQEDGYHCLCPPGYYGLHCEHSTLSCADSPCFNGGSCRERNQGANYACECPPNFTGSNCE
B2: DLL4.v2: human DLL4 clone with five mutations N257P, T271L, F280Y, S301R, Q305P; matches SEQ ID NO: 5 (protein)
chain: SGVFQLQLQEFINERGVLASGRPCEPGCRTFFRVCLKHFQAVVSPGPCTFGTVSTPVLGTNSAVRDDSSGGGRNPLQLPFNFTWPGTFSLIIEAWHAPGDDLRPEALPPDALISKIAIQGSLAVGQNWLLDEQTSTLTRLRYSYRVICSDNYYGDNCSRLCKKRNDHFGHYVCQPDGNLSCLPGWTGEYCQQPICLSGCHEQNGYCSKPAECLCRPGWQGRLCNECIPHPGCRHGTCSTPWQCLCDEGWGGLYCDQDLNYCTHHSPCKNGATCRNSGPRSYTCTCRPGYTGVDCELELSECDSNPCRNGGSCKDQEDGYHCLCPPGYYGLHCEHSTLSCADSPCFNGGSCRERNQGANYACECPPNFTGSNCE

Tested on: Notch1 (EGF6-13)
Test: SPR determination of equilibrium dissociation constants
Assay type: binding, human
Conditions: for off-rate from fitted SPR sensograms: series DLL4.v1, DLL4.v2, Delta^MAX, FIG. 2C Notch1 EGF6-13; for binding affinity compared to WT DLL4: stated for all four human Notch receptors (Notch1-4)
Procedure: Equilibrium dissociation constants were determined by surface plasmon resonance using a Biacore T200 instrument (GE Healthcare). Approximately 100 resonance units (RU) of biotinylated Notch extracellular fragments (Notch1 (EGF6-13), Notch2 (EGF6-13), Notch3 (EGF5-12), Notch4 (7-12), and mouse Notch1 (EGF6-13)) were immobilized on individual flow cells at 5 μl/min using a streptavidin-coated sensor chip (Series S Sensor chip SA, GE Healthcare). Three-fold serial dilutions of recombinant DLL4 proteins (N-EGF5) starting at 50 μM (WT DLL4), 18 μM (DLL4.v2), and 6 μM (DLL4.v1 and Delta^MAX) were flowed over the chip at 25° C. in SPR buffer (20 mM HEPES pH 7.4, 150 mM NaCl, 1 mM calcium chloride, 0.1% BSA supplemented with 0.005% surfactant P20). Association (“on-rate”) and dissociation (“off-rate”) phases were performed at 10 μl/min for 120 seconds and 300 seconds, respectively. The sensor chip was regenerated after each injection with 30-second washes of 2.25M Magnesium Chloride containing 25% Ethylene Glycol at 50 μL/min. Data collection rate was performed at 10 Hz, and curves were reference-subtracted from a flow cell containing 100 RU of a negative control non-related protein (biotinylated mouse RNF43 PA domain). The maximum RU for each experiment was normalized to a value of 100% and plotted as a function of concentration using Prism 9 software (GraphPad). Steady-state binding and kinetic curves were fitted using the Biacore T200 evaluation software to a 1:1 Langmuir model to determine the KD values.

Sequence of Notch1 (EGF6-13) (P46531 257-526 limits assumed): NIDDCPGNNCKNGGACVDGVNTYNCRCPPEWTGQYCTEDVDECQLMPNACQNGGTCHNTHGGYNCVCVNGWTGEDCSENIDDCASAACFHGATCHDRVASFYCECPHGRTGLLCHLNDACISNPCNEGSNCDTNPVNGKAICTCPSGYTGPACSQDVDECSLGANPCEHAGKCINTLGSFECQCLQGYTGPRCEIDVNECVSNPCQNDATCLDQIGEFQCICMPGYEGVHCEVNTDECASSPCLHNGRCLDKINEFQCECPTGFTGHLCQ

Molecule | off-rate from fitted SPR sensograms | binding affinity compared to WT DLL4
B1 | progressive decreases in off-rate | enhanced affinity
B2 | progressive decreases in off-rate | enhanced affinity
